Here are results for one sequence from the Immune Epitope Database (IEDB).

Assay in all cases: IEDB peptide-MHC binding, purified MHC/competitive/fluorescence; filed as Kd, often an IC50 or EC50 that approximates it; ≥ and ≤ were set here for values at or beyond the usual limits of such assays
Holding throughout (conditions): source organism: Salmonella enterica subsp. enterica serovar Typhi

For assay [1], the target named is HLA-B*15:01.
The target in assay [2] is HLA-B*18:01.
For assay [3], the target named is HLA-B*48:01.
In assay [4] the target is HLA-B*39:01.
Assay [5] concerns the target HLA-B*38:01.
Assay [6] concerns the target HLA-B*08:01.
For assay [7], the target named is HLA-B*58:01.
Assay [8] deals with HLA-A*01:01.
Assay [9] addresses HLA-B*57:01.

On to SVIDHIHYM, for which the Kd in [1] is 145 nM; in [2] it was not below 20000 nM; in assay [3], not below 20000 nM; in [4], 2800 nM; in [5], not below 20000 nM; in assay [6] it was not below 20000 nM. Further, the values for the Kd in assay [7], in assay [8] and in assay [9] were 290 nM, not below 20000 nM and 1530 nM, respectively.
